Two molecules from article PMC9385276 can be followed below.

The target of series [1] is T1, PDGF-BB (human, UniProt P01127 82-190). In words: ELISA.
The target of series [2] is T1, PDGF-BB. Put plainly: ELISA. The source holds these as a separate data set. (In an ELISA, binding on a coated surface is turned into a signal by an enzyme label.)

Where two headings read alike, the source gives them in different places.

T1 sequence (P01127 82-190): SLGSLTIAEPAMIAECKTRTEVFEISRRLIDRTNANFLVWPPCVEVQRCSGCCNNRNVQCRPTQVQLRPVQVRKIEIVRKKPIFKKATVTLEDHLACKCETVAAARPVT

B1: Aa11 (structured_DNA)
DNA: CAGGCTACGGCACGTAGAGCATCACCATGATCCTGAAAAAATAATACGACTCACTATAGGGCCGTAGCCTG
Take B1: the binding result in series [1] was “binds”.

B2: Aa10 (structured_DNA)
DNA: CAGGCTACGGCACGTAGAGCATCACCATGATCCTGAAAAAATAATACGACTCACTATAGGGTCCGTAGCCTG
For the molecule B2, the binding result in series [2] is “binds”.
